One substance from publication doi:10.1101/2024.11.04.618112 can be followed below.

The assay addresses His10-pA-Tn5 (recombinant protein A-Tn5 transposase with an N-terminal His10-tag) (Escherichia coli) (UniProt Q46731). Briefly: SEC. In general terms: In gel filtration, larger molecules generally elute earlier.

Broadly, the stoichiometry N is a count of units in the complex or per binding partner. As to “His10-pA-Tn5 (recombinant protein A-Tn5 transposase with an N-terminal His10-tag) (from UniProt Q46731 1-476) (enzyme)”, the stoichiometry N was determined as 2.
